Results on 2 molecules are retold here after patent US20030170785A1 (ORTHO MCNEIL PHARMACEUTICAL, published 2003).

The target of assay [1] is CaV1.2 (α1C) L-type calcium channel subunit. Put plainly: cell-based or functional assay.
The target of assay [2] is T1, Protein A Sepharose CL-4B (Pharmacia) (UniProt P38507 37-477).
T1 construct: Used alone (without anti-CaV1.2 antibody) as the negative control of the reciprocal immunoprecipitation; also called protein-A beads
Put plainly: immunoprecipitation from HEK293 lysates with protein-A beads only, Western blot with anti-HA Ab. A general note: A western blot detects proteins with antibodies after separation by electrophoresis.
Description: Formation of a stable complex of α₂δ-4 with other channel subunits was tested by coimmunprecipitation. The α₂δ-4 subunit was first tagged with an HA epitope and co-transfected with CaV1.2 (α1C) and β₃ subunits into HEK cells. Co-immunoprecipitation was carried out with transient transfected HEK 293 cells by constructs of α1C, β₃ and α₂δ-4 tagged with HA epitope. Two days after the transfection, the cells (from two 150 mm plates) were harvested and washed with PBS. The cells were then resuspended in 2 ml of detergent extraction buffer: 1% (vol/vol) Nonidet P-40, 0.5% deoxycholate, 150 mM NaCl, 5 mM EDTA, 50 mM Tris-HCl (pH 8.0) and 20 μl of protease inhibitor cocktail (Sigma), followed 10 passages each through 20 and 26-gauge needles. Cell extracts were cleared by centrifugation. […] After incubated at 4° C. for overnight, the beads were precipitated by brief centrifugation, and washed 3 times with 1 ml of lysis buffer. Finally, 100 μl of 1×SDS loading buffer were added, and 20 μl were subjected to 4-20% SDS. The co-precipitated subunits were then analyzed by Western blot with indicated antibodies.

B1: human calcium channel α2δ-4 subunit (other)
chain: MAVALGTRRRDRVKLWADTFGGDLYNTVTKYSGSLLLQKKYKDVESSLKIEEVDGLELVRKFSEDMENMLRRKVEAVQNLVEAAEEADLNHEFNESLVFDYYNSVLINERDEKGNFVELGAEFLLESNAHFSNLPVNTSISSVQLPTNVYNKDPDILNGVYMSEALNAVFVENFQRDPTLTWQYFGSATGFFRIYPGIKWTPDENGVITFDCRNRGWYIQAATSPKDIVILVDVSGSMKGLRMTIAKHTITTILDTLGENDFVNIIAYNDYVHYIEPCFKGILVQADRDNREHFKLLVEELMVKGVGVVDQALREAFQILKQFQEAKQGSLCNQAIMLISDGAVEDYEPVFEKYNWPDCKVRVFTYLIGREVSFADRMKWIACNNKGYYTQISTLADTQENVMEYLHVLSRPMVINHDHDIIWTEAYMDSKLLSSQAQSLTLLTTVAMPVFSKKNETRSHGILLGVVGSDVALRELMKLAPRYKLGVHGYAFLNTNNGYILSHPDLRPLYREGKKLKPKPNYNSVDLSEVEWEDQAESLRTAMINRETGTLSMDVKVPMDKGKRVLFLTNDYFFTDISDTPFSLGAVLSRGHGEYILLGNTSVEEGLHDLLHPDLALAGDWIYCITDIDPDHRKLSQLEAMIRFLTRKDPDLECDEELVREVLFDAVVTAPMEAYWTALALNMSEESEHVVDMAFLGTRAGLLRSSLFVGSEKVSDRKFLTPEDEASVFTLDRFPLWYRQASEHPAGSFVFNLRWAEGPESAGEPMVVTASTAVAVTVDKRTAIAAAAGVQMKLEFLQRKFWAATRQCSTVDGPYTQSCEDSDLDCFVIDNNGFILISKRSRETGRFLGEVDGAVLTQLLSMGVFSQVTMYDYQAMCKPSSHHHSAAQPLVSPISAFLTATRWLLQELVLFLLEWSVWGSWYDRGAEAKSVFHHSHKHKKQDPLQPCDTEYPVFVYQPAIREANGIVECGPCQKVFVVQQIPNSNLLLLVTDPTCDCSIFPPVLQEATEVKYNASVKCDRMRSQKLRRRPDSCHAFHPEVRVEADRGWAGFSSPNPLCLGLCPCRQEHIGMPMNTPVPVLLGGNIRVYAL
For the molecule B1, the “Ca^2+ influx (fluorescence change after depolarization with 50 mM KCl) in transfected HEK 293 cells” value in assay [1] is 6 fold.

B2: human calcium channel α2δ-4 subunit tagged with HA epitope (other, not shown: small tags and cut ends)
chain: MAVALGTRRRDRVKLWADTFGGDLYNTVTKYSGSLLLQKKYKDVESSLKIEEVDGLELVRKFSEDMENMLRRKVEAVQNLVEAAEEADLNHEFNESLVFDYYNSVLINERDEKGNFVELGAEFLLESNAHFSNLPVNTSISSVQLPTNVYNKDPDILNGVYMSEALNAVFVENFQRDPTLTWQYFGSATGFFRIYPGIKWTPDENGVITFDCRNRGWYIQAATSPKDIVILVDVSGSMKGLRMTIAKHTITTILDTLGENDFVNIIAYNDYVHYIEPCFKGILVQADRDNREHFKLLVEELMVKGVGVVDQALREAFQILKQFQEAKQGSLCNQAIMLISDGAVEDYEPVFEKYNWPDCKVRVFTYLIGREVSFADRMKWIACNNKGYYTQISTLADTQENVMEYLHVLSRPMVINHDHDIIWTEAYMDSKLLSSQAQSLTLLTTVAMPVFSKKNETRSHGILLGVVGSDVALRELMKLAPRYKLGVHGYAFLNTNNGYILSHPDLRPLYREGKKLKPKPNYNSVDLSEVEWEDQAESLRTAMINRETGTLSMDVKVPMDKGKRVLFLTNDYFFTDISDTPFSLGAVLSRGHGEYILLGNTSVEEGLHDLLHPDLALAGDWIYCITDIDPDHRKLSQLEAMIRFLTRKDPDLECDEELVREVLFDAVVTAPMEAYWTALALNMSEESEHVVDMAFLGTRAGLLRSSLFVGSEKVSDRKFLTPEDEASVFTLDRFPLWYRQASEHPAGSFVFNLRWAEGPESAGEPMVVTASTAVAVTVDKRTAIAAAAGVQMKLEFLQRKFWAATRQCSTVDGPYTQSCEDSDLDCFVIDNNGFILISKRSRETGRFLGEVDGAVLTQLLSMGVFSQVTMYDYQAMCKPSSHHHSAAQPLVSPISAFLTATRWLLQELVLFLLEWSVWGSWYDRGAEAKSVFHHSHKHKKQDPLQPCDTEYPVFVYQPAIREANGIVECGPCQKVFVVQQIPNSNLLLLVTDPTCDCSIFPPVLQEATEVKYNASVKCDRMRSQKLRRRPDSCHAFHPEVRVEADRGWAGFSSPNPLCLGLCPCRQEHIGMPMNTPVPVLLGGNIRVYAL
notes: Expressed by transient co-transfection with CaV1.2 (α1C) and β3 in HEK293 cells and tested in detergent lysates; also called α2δ-4(HA)
For B2, the binding result in assay [2] is reported as “no binding”.
